Results from the supplement of paper PMC10567573.
± gives the standard deviation.

Assay: protein stability index of a GFP-peptide fusion (GPS, HEK-293T) (PSI 1-6); higher = more stable
[1] = treatment: DMSO, c terminus: a fixed tail appended
[2] = treatment: MLN4924 1 uM, 8 h, c terminus: a fixed tail appended
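Further: 24-mer peptide tiles fused after GFP, lentivirally expressed, FACS-sorted into six equal bins by GFP/DsRed ratio, decoded by Illumina sequencing, PSI is the read-weighted mean bin number.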

Sequence | protein stability index [1] | protein stability index [2] | protein stability index (treatment: DMSO, c terminus: native) | protein stability index (treatment: MLN4924 1 uM, 8 h, c terminus: native)
APQGGMAALNMSLGMVTPVNDLRG [ADD1] | 3.83 ± 0.23 | 3.77 ± 0.097 | – | –
YGDWTSGENSDGCYEHFAELDIPQ [CLPTM1] | 4.54 ± 0.23 | 4.63 ± 0.26 | – | –
VSLTSPSAPPTSRTSSGNVWVTHE [PPFIA4] | 3.35 ± 0.21 | 3.47 ± 0.32 | – | –
EGRFWKSKNEDRGEEEAESSISST [ZMYND11] | 5.65 ± 0.2 | 5.71 ± 0.13 | – | –
EWNEKVTQSDLYKKTQETLSQAGQ [TPD52L2] | 4.39 ± 0.35 | 4.4 ± 0.17 | – | –
LFSLMVVNRLTEELGCDEIIDRE [EID1] | – | – | 3 ± 1.1 | 2.37 ± 0.48
SFAELFSFMLQDRAKGLLGTTVTF [FEM1C] | 2.79 ± 0.56 | 3.21 ± 0.84 | – | –
SSNLSLDVLRGNDETIGFEDILND [POMP] | 5.08 ± 0.17 | 4.94 ± 0.32 | – | –
LIQFLEQVHQGIKGMVLDENYNNL [CPN1] | 2.62 ± 0.065 | 3.07 ± 0.61 | – | –
RKDHLKNHLQTHDPNKMAFGCEEC [PLAGL1] | 4.77 ± 0.16 | 4.93 ± 0.54 | – | –
KIREKEEWIKLDYHRRHNPKTNED [IQUB] | 4.23 ± 0.28 | 4.74 ± 0.13 | – | –
QEEEQAETPMAPVPLGPLGETYCE [TRIM15] | 5.4 ± 0.17 | 5.57 ± 0.16 | – | –
QNEEYLLTYINEDRISTTFRLTTL [PLK2] | 2.6 ± 0.37 | 2.29 ± 0.58 | – | –
IHTGERPYKCPECGKSFSRSSHLV [ZNF263] | 2.66 ± 0.45 | 3.18 ± 0.55 | – | –
DSEDFPQAAKQIKDGVTMAPAFRL [FSD1] | 4.24 ± 0.11 | 4.33 ± 0.28 | – | –
YAPVGFCLLVLRLFLGIHVFLVSC [AUP1] | 3.14 ± 1 | 2.88 ± 0.35 | – | –
AFAQRPSSAPDLMCLSPDRKMEVE [CDC25B] | 4.97 ± 0.3 | 4.78 ± 0.14 | – | –
QKSVTRSCLLEEEEESGEEAAEAM [POP5] | 5.37 ± 0.42 | 5.47 ± 0.27 | – | –
EECIPEHMVRESKIMEAESQKATR [FAN1] | 5.12 ± 0.77 | 4.72 ± 1.2 | – | –
LAGMANHGSPQLGEGMFQHQTSVA [TBX5] | 3.83 ± 0.2 | 3.83 ± 0.13 | – | –
TSLFLGNGVLLCFYSQEWYARQHC [SOAT1] | 2.9 ± 0.8 | 2.91 ± 0.32 | – | –
PDECGKTEFTRFLCSSPLEAETPP [ATE1] | 4.8 ± 0.071 | 4.88 ± 0.13 | – | –

Sequence | protein stability index [1] | protein stability index [2] | protein stability index (treatment: DMSO, c terminus: native) | protein stability index (treatment: MLN4924 1 uM, 8 h, c terminus: native)
SLVIGALLASLTGGVLIDRYGRRT [SLC2A12] | 2.89 ± 0.45 | 3.03 ± 0.42 | – | –
RDSAYQSITHYRPVSASRSSLDLS [EMD] | 3.41 ± 0.18 | 3.58 ± 0.22 | – | –
LFPNAKKEHVPTWLQNTHVYSWPK [TRAF3IP2] | 2.8 ± 0.33 | 2.81 ± 0.19 | – | –
NHCMLSPSSSGHLADSDTLSSAEE [C18orf25] | 5.36 ± 0.19 | 5.4 ± 0.098 | – | –
EPVAEIGVGAYGTVYKARDPHSGH [CDK4] | 4.11 ± 0.32 | 4.1 ± 0.28 | – | –
PTCPVCKDRASPADLRTNHTLNNL [TRIM35] | 3.62 ± 0.21 | 3.9 ± 0.46 | – | –
ATADFADVADDFENYHKLRRSSSK [NETO1] | 4.99 ± 0.096 | 5.196 ± 0.05 | – | –
SIFGICMVFSGLCPLLLGSVMAIE [PTGFR] | 3.36 ± 0.43 | 3.09 ± 0.84 | – | –
INCQLSDPSSTKPGTLLKTSPSPE [TRIM14] | 4.79 ± 0.3 | 4.88 ± 0.31 | – | –
HLVIAEMMELGSRSRGASQKKQKL [FATE1] | 3.25 ± 0.14 | 3.34 ± 0.2 | – | –
KTIKSFFPHSGKDCLLCFPETLPE [C8orf76] | 2.92 ± 0.26 | 3.03 ± 0.32 | – | –
EHERAHRGEKPHGCSLCGKAFYKR [ZNF649] | 2.79 ± 0.11 | 3.45 ± 0.59 | – | –
DDMLLFDEQEKGIVTKFYQLSATG [FAN1] | 3.57 ± 0.3 | 3.46 ± 0.2 | – | –
MAMPNGFHEDGPQGPGGDEDDDEE [PSD2] | 5.41 ± 0.3 | 5.47 ± 0.18 | – | –
TDLDAVRTPEPLEEFPKREDQEGS [MYBL2] | 5.43 ± 0.11 | 5.52 ± 0.21 | – | –
PDCGKAFVSRYKLMRHMATHSPQK [PLAGL1] | 2.88 ± 0.24 | 3 ± 0.22 | – | –
DYNQAEMKQRDNCKIRIQRQLEIM [STX11] | 2.9 ± 0.19 | 3.15 ± 0.31 | – | –
HLYIYSIHSIPKGTEITIAFDFDY [KMT2E] | 3.39 ± 0.45 | 3.08 ± 0.33 | – | –
GKYDSGIPPYSRASLKGYQWLKDK [KCNAB2] | 3.26 ± 0.073 | 3.23 ± 0.24 | – | –
TREGFTLLHLAVNSNTPVDDFHTN [FEM1B] | 2.85 ± 0.17 | 2.95 ± 0.19 | – | –
VQARMLSSTTILVQWKEPEEPNGQ [PTPRD] | 3.27 ± 0.34 | 3.19 ± 0.35 | – | –
EVSNPSKPGRKTNQLQYMQNVVVK [BRD3] | 3.66 ± 0.11 | 3.79 ± 0.28 | – | –
